Measured values reported in article PMC2952493 (Biochemistry, 2010).

Target: the molecule itself
Test: SEC

B1: recombinant His-tagged TRUSS_(1-797) (natural protein, UniProt Q9JLV2 1-797, looked up)
chain: MAAAPAAAGAGASRGRRLAATAAAWGGWGGRPRPGNILLQLRQGQLTGRGLVRAVQFTETFLTERDKLSKWSGIPQLLLKLYATSHLHSDFVECQSILKEISPLLSMEAMAFVTEDRKFTQEATYPNTYIFDLFGGVDLLVEILMRPTISIRGQKLKISDEMSKDCLSILYNTCVCTEGVTKRLAEKNDFVIFLFTLMTSKKTFLQTATLIEDILGVKKEMIRLDEVPNLSSLVSNFDQQQLANFCRILAVTISEMDTGNDDKHTLLAKNAQQKKSLSLGPSAAEINQAALLSIPGFVERLCKLATRKVSESTGTASFLQELEEWYTWLDNALVLDALMRVANEESEHNQAPTVFPSLGTSEEGGLPHTSARAQLPQSMKIMHEIMYKLEVLYVLCVLLMGRQRNQVHRMIAEFKLIPGLNNLFDKLIWRKHSASALVLHGHNQNCDCSPDITLKIQFLRLLQSFSDHHENKYLLLNNQELNELSAISLKANIPEVEAVLNTDRSLVCDGKRGLLTRLLQVMKKEPAESSFRFWQARAVESFLRGTTSYADQMFLLKRGLLEHILYCIVDSECKSRDVLQSYFDLLGELMKFNVDAFKRFNKYINTDAKFQVFLKQINSSLVDSNMLVRCVTLSLDRFENQVDMKVAEVLSECRLLAYISQVPTQMSFLFRLINIIHVQTLTQENVSCLNTSLVILMLARRKERLPLYLRLLQRMEHSKKYPGFLLNNFHNLLRFWQQHYLHKDKDSTCLENSSCISFSYWKETVSILLNPDRQSPSALVSYIEEPYMDIDRDFTEE
In the case of B1, the “stoichiometry N” value is reported as 3.
